First the molecules themselves.
B1: GST-TSG101 UEV domain (residues 2-145) (domain or fragment)
chain: AVSESQLKKMVSKYKYRDLTVRETVNVITLYKDLKPVLDSYVFNDGSSRELMNLTGTIPVPYRGNTYNIPICLWLLDTYPYNPPICFVKPTSSMTIKTGKHVDANGKIYLPYLHEWKHPQSDLLGLIQVMIVVFGDEPPVFSRP
B2: binary TSG101-VPS28 ESCRT-I head subcomplex, wild type (complex)
chain 1: QSENNDIDEVIIPTAPLYKQILNLYAEENAIEDTIFYLGEALRRGVIDLDVFLKHVRLLSRKQFQLRALMQKARKTAGLSD
chain 2: MFHGIPATPGIGAPGNKPELYEEVKLYKNAREREKYDNMAELFAVVKTMQALEKAYIKDCVSPSEYTAACSRLLVQYKAAFRQVQGSEISSIDEFCRKFRLDCPLAMERIKEDRPITIKDDK

Series [1] concerns the target B2. In words: pull-down.
The series “SEC” deals with the molecule itself. In words: SEC. For orientation: SEC sorts molecules by how far they enter the pores of the column.

The values below come from publication PMC7339825 (Nature structural & molecular biology, 2020).

B1: the binding result in series [1] is “binds”.
For the molecule B2, the binding result in “SEC” is given as “binds”.
